Laboratory results from US6989144.

Key:
[1] = target: GPVI on baboon platelets (baboon); test: flow cytometry, washed baboon platelets; negative control
[2] = target: GPVI on baboon platelets (baboon); test: flow cytometry, washed baboon platelets
[3] = target: soluble human GPVI-Fc (extracellular domain of GPVI fused to Fc; hGPVI-human IgG1Fc) (human) (UniProt Q9HCN6); test: 125I-convulxin binding to GPVI-Fc captured on 1P10.2, 10 µg/ml reagent; competitor ligand convulxin
[4] = target: collagen type I; test: cell-based or functional assay

Chain of soluble human GPVI-Fc (extracellular domain of GPVI fused to Fc; hGPVI-human IgG1Fc) (human) (Q9HCN6 other isoform, or with tags, fused parts or gaps): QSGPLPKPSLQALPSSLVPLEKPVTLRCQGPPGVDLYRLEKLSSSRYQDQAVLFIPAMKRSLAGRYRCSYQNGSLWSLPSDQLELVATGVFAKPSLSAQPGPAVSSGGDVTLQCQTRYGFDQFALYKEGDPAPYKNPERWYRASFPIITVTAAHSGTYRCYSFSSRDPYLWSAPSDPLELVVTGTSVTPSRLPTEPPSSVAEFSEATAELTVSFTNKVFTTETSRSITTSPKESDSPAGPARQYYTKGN

Baboon fluorescence intensity [1]	Baboon platelets % positive [1]	Substance	further results
9	6.8%	monoclonal antibody 7H14.1 (negative control)	–
10	9%	monoclonal antibody 7120.2 (negative control)	–
–	–	mouse monoclonal antibody produced by hybridoma cell line 9012.2	Baboon fluorescence intensity [2]: 18; Baboon platelets % positive [2]: 33.8%; % blocking of GPVI-Fc binding to convulxin [3]: > 25%
–	–	recombinant human soluble GPVI:Fc (rhusGPVI:Fc) (from UniProt Q9HCN6 21-269) (Fc fusion)	collagen-induced platelet aggregation and secretion [4]: 10 fold
